Data reported in publication PMC11674933, “Discovery of Carbonic Anhydrase 9 as a Novel CLEC2 Ligand in a Cellular Interactome Screen” (Cells, 2024).

Biological target: CA9^38−414-His-avi (human, UniProt Q16790, biotin (biotinylated))
Assay: AlphaScreen or HTRF; validation of the AlphaLISA set-up (Figure S6) with tagged G250 against a control library protein; CA9 on the beads at 15 nM or 60 nM
Conditions: one partner purified

binding result: binds
B1: 2E3 tagged Girentuximab (G250) (antibody, V domains shown)
VH: DVKLVESGGGLVKLGGSLKLSCAASGFTFSNYYMSWVRQTPEKRLELVAAINSDGGITYYLDTVKGRFTISRDNAKNTLYLQMSSLKSEDTALFYCARHRSGYFSMDYWGQGTSVTVSS
VL: DIVMTQSQRFMSTTVGDRVSITCKASQNVVSAVAWYQQKPGQSPKLLIYSASNRYTGVPDRFTGSGSGTDFTLTISNMQSEDLADFFCQQYSNYPWTFGGGTKLEIK
notes: tagged versions of Girentuximab (G250); also called anti-CA9; G250 constructs
